Laboratory results taken from the nanobody polyreactivity screen of Harvey et al. (2022).

Assay: yeast display, Sf9 membrane polyspecificity reagent, FACS + sequencing; frameworks hold sequencing errors
Summary of the method: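 Nanobodies came from a synthetic yeast display library in Saccharomyces cerevisiae BJ5465, induced with galactose for 36–48 hours and stained for 1 hour at 4 °C with 10% biotinylated, detergent-solubilized Sf9 membrane reagent. Cells were enriched on streptavidin microbeads and then FACS-sorted, with low and high (top ~1%) gates set on anti-HA fluorescence for expression and streptavidin fluorescence for reagent binding. Each polyreactivity label reflects the gate a clone came from. Genes were amplified by colony PCR, sequenced by MiSeq 2 × 250 and filtered by CDR length.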

Sequence	polyreactivity (PSR sort gate)
QVQLVESGGGLVQAGGSLRLSCAASGSIFAPYAMGWYRQAPGTERELVAAITWSGDSTYYADSVKGRFTISRDNAKNTVYLQMNSLKPEDTAVYYCATEEVYGQGNYWGQGTQVTVSS	low polyreactivity
QVQLVESGGGLVQAGGSLRLSCAASGSIFAPYDMGWYRQAPGKERELVAAIDWGGDSTYYADSVKGRFTISRDNAKNTVYLQMNSLKPEDTAVYYCAADDLWLSYRTEYDYYYWGQGTQVTVSS	low polyreactivity
QVQLVESGGGLVQAGGSLRLSCAASGSIFAQNAIGWYRQAPGKERELVAAIDLNGGSTYYADSVKGRFTISRDNAKNTVYLQLNSQKPEDTAVYYCAVYYGHSSVIRSSPEYDSWGQGTQVTVSS	low polyreactivity
QVQLVESGGGLVQAGGSLRLSCAASGSIFAQYAMGWYRQAPGKERELVATISSVGSTNYADSVKGRFTISRDNAKNSVYLLMNSLKPEDTAVYYCNAVRSGWGYFYGLNSWGQGTQVTVSS	low polyreactivity
QVQLVESGGGLVQAGGSLRLSCAASGSIFAQYAMGWYRQAPGKETELVAAISYRGGRTYYADSVKGRFTISRDNAKNTVYLQMNSLKPEDTAVYYCNADSSSYSSDLGYDYWGQGTQVTVSS	low polyreactivity
QVQLVESGGGLVQAGGSLRLSCAASGSIFARNAMGSYRQAPGKERELVAAITVRGRTNYADSVKGRFTISRDNAKNTVYLQMNSLKPDDTAVYYCAASLWDDDSRLMYYWGQGTQVTVSS	high polyreactivity
QVQLVESGGGLVQAGGSLRLSCAASGSIFARYAMGWYRQAPGKERELDAAISGRGGSTYYADSVKGRFTISRDNAKNTVYLQMNSLKPEDTAVYYCNAVGHTSIRRALDILDYWGQGTQVTVSS	high polyreactivity
QVQLVESGGGLVQAGGSLRLSCAASGSIFARYAMGWYRQAPGKERELVAAISSSGSRTYYADSVKGRFTISRDNAKNTVYLQMNSLKPEDTAVYYCATRYGSASGREYEYWGQGTQVTVSS	high polyreactivity
QVQLVESGGGLVQAGGSLRLSCAASGSIFARYVMGWYRQAPGKERELVAAISRGGRTKYADSVKGRFTISRDNAKNTVYLQMNSLKPEDTAVYYCAASGSQPDDYWGQGTQVTVSS	high polyreactivity
QVQLVESGGGLVQAGGSLRLSCAASGSIFASNAMGWYRQAPGKERELVAAITDSGSTNYADSVKGRFTISRDNAKNTVYLQMNSLKREDTAVYYCDWSYYVWRRYRVARYDSWGQGTQVTVSS	low polyreactivity
QVQLVESGGGLVQAGGSLRLSCAASGSIFASNAMGWYRQAPGKERGLVAAITYNGGSTYYADSVKGRFTISRDNAKNTVYLQMNSLKPEDTAVYYCAALGTRRPHIPRGDYWGQGTQVTVSS	low polyreactivity
QVQLVESGGGLVQAGGSLRLSCAASGSIFASYAMGWYRQAPGKERELVAVITRSGGSTYYADSVKGRFTISRDNAKNTVYLQMNSLKPEDTAVYYCAAQYGRTYYSRREYWGQGTQVTVSS	high polyreactivity
QVQLVESGGGLVQAGGSLRLSCAASGSIFASYDMGWYRQAPGKERELVAAISYRGGGTYYADSVKGRVTISRDNAKNTVYLQMNSLKPEDTAVYYCNADTYSNTYRAYDYWGQGTQVTVSS	low polyreactivity
QVQLVESGGGLVQAGGSLRLSCAASGSIFASYVMGWYRQAPGKERELVAAITSRGTSTYYADSVKGRFTISRDNAKNTVYLHMNSLNPEDTAVYYCAARLYGSAPQHEYWGQGTQVTVSS	low polyreactivity
QVQLVESGGGLVQAGGSLRLSCAASGSIFAVNAMGWYRQAPGKERELVAAIDWSDGITYYADSVKGRFTISRDNAKNTVYLQMNSLKPEDTAVYYCAADATAYGWYVEQFSFYDNDYWGQGTEVTVSS	high polyreactivity
QVQLVESGGGLVQAGGSLRLSCAASGSIFAVNAMGWYRQAPGKERELVAAISWNGGSTYYADSVKGRFTISRDNAKNTVYLQMNSLKPEDTAVYYCATVRYKYYWSYYRYGYWGQGTQVTVSS	high polyreactivity
QVQLVESGGGLVQAGGSLRLSCAASGSIFAVNTMGWYIQAPGKERELVAAISQRGSSTYYADSVKGRFTISRDNAKNTVYLQMNSLKPEDTAVYYCAKRFIYGRYNYWGQGTQVTVSS	high polyreactivity
QVQLVESGGGLVQAGGSLRLSCAASGSIFAVYAMGWSRQAPGKERELVAAITTSGGSTYYADSVKGRFTISRDNAKNTVYLQMNSLKPEDTAVYYCAAYRGTLLTAYDYWGQGTQVTVSS	low polyreactivity
QVQLVESGGGLVQAGGSLRLSCAASGSIFAVYAMGWYRQAPGKEREFVARISWGGGRTYYADSVKGRCTISRDNAKNPVYLQMNSLKPEDTAVYYCAATFRARPRENYWGQGTQVTVSS	high polyreactivity
QVQLVESGGGLVQAGGSLRLSCAASGSIFAVYVMGWYRQAPGKERDFVAAITYSGTSTNYADSVKGRFTISRDNAKNTVYLQMNSLKPEDTAVFYCAADVRSSNGHYTLYDYWGQGTQVTVSS	high polyreactivity
QVQLVESGGGLVQAGGSLRLSCAASGSIFAWYVMGWYRQAPGKERELVAGIDTSGGSTFYADSVKGRFTISRDNAKNTVYLQMNSLKPEDTAVYYCAADTWFRGPWEFDYWGQGTQVTVSS	low polyreactivity
QVQLVESGGGLVQAGGSLRLSCAASGSIFAYAMGWYRQAPGKERELVAGISSSGGRTYYADSVKGRFTISRDNAKNTVYLQMISLKPEDTAVYYCAARYPNVYQSETYFYWGQGTQVNVSS	high polyreactivity

Sequence	polyreactivity (PSR sort gate)
QVQLVESGGGLVQAGGSLRLSCAASGSIFAYNAMGWYIQSPGTERELVAAISSSGGSTTYADSVKGRFTISRDNAKYTVYLQMNSLKPEDTAVYYCNAAWRRSRYYYWGQGTQVTVSS	high polyreactivity
QVQLVESGGGLVQAGGSLRLSCAASGSIFAYNAMGWYRQAPGKEREFVAVITRSDDSTYADSVKGRFTISRDNAKNSVYLQMNSLKPEDTAVYYCAAQPFVIDGGYRGDYWGQGTQVTVSS	low polyreactivity
QVQLVESGGGLVQAGGSLRLSCAASGSIFAYYAMGGYRQAPGKERELVAAITSGDSTYYADSVKGRFTISRDNAKNTVYLQMNSLKPEDTAVYYCAADHIWFYFYLYDYWGQGTQVTVSS	low polyreactivity
QVQLVESGGGLVQAGGSLRLSCAASGSIFAYYAMGWYRQAPGKEMELVAAITRGGTTYYADSVKGRFTISRDNAKNTVYLQMNSLKPEDTAVYYCAVYYYSGTAGYRYGYWGQATQVTVSS	high polyreactivity
QVQLVESGGGLVQAGGSLRLSCAASGSIFAYYAMGWYRQAPGKEREFVARITYSTDGTYYADSVKGRFTISRDNAKNTVYLQMNSLKPEDTAVYYCAVDTWWGFKRYKFDYWGQGTQVTVSS	low polyreactivity
QVQLVESGGGLVQAGGSLRLSCAASGSIFAYYAMGWYRQAPGKERELVAAISRRGGSTYYADSVKGRFTISRDNAKNTGYLQMNSLQPEDTAVYYCAADIGPRYDSWGLGTQVTVSS	high polyreactivity
QVQLVESGGGLVQAGGSLRLSCAASGSIFAYYAMGWYRQAPGKERELVADITSSGGITYYADSVKGRFTISRDNAKNTVYLQMISLKPEDTAVYYCNADSWAIGGGSYPFDYWGQGTQVTVSS	low polyreactivity
QVQLVESGGGLVQAGGSLRLSCAASGSIFAYYAMGWYRQAPGKERELVARIRRRSSSTFYADSVKGRFTISRDNAKYTVYLQMNSLKPEDTAVYYCAVRGPGTSTYWYHEYEYWGQGTQVTVSS	high polyreactivity
QVQLVESGGGLVQAGGSLRLSCAASGSIFCDKAMGWYRQAPGKERELVAAISIVGSTSYADSVKGRFTISRDNANNTVYLQMNSLKPEDTAVYYCAAENVRSDTGFDYWGQGTQVTVSS	low polyreactivity
QVQLVESGGGLVQAGGSLRLSCAASGSIFDANAIGWYRQAPGKERELVAAIDSGDITNYADSVKGRFTISRDNAKNTVYLQMNSLKPEDTAVYYCAAEWHYIYAYDYWGQGTQVTVSS	low polyreactivity
QVQLVESGGGLVQAGGSLRLSCAASGSIFDAYAMGWYRPATGKERELVAAITYSGGSTYYADSVKGRFTISRDNAKNTVYLQMNSLKPEDTAVYYCNTDSRVRTWFRAFTYDSWGQGTQVTVSS	low polyreactivity
QVQLVESGGGLVQAGGSLRLSCAASGSIFDAYAMGWYRQAPGKERELVAAISLSDTSTYYADSVKGRFTISRDNAKNTVYLQMNSLKPEDTAVYYCAAEFYIAYIEYDYWGQGTQVTVSS	high polyreactivity
QVQLVESGGGLVQAGGSLRLSCAASGSIFDDNAMGWYRPAPGKERELVATINYGGGRTSYADSVKGRSTISRDNAKNTVYLQMNSLKPEDTAVYYCAADPRQKEDYWGQGTQVTVSS	low polyreactivity
QVQLVESGGGLVQAGGSLRLSCAASGSIFDDNAMGWYRQAPGKERELVAAITSTDSTNYADSVKGRFTISRDNAKNPVYLQMNSLKPEDTAVYYCNAESLGWYRLYTVDYWGQGTQVTVSS	low polyreactivity
QVQLVESGGGLVQAGGSLRLSCAASGSIFDDYAMGWYRPAPGKEREVVAAISSGGSTYYADSVKGRFTISRDNAKNTVYLQMNSLKPEDTAVYYCNALYPQVGFGYWGQGTQVTVSS	low polyreactivity
QVQLVESGGGLVQAGGSLRLSCAASGSIFDDYAMGWYRQAAGKERELVAAITWNGGSTYADSVKGRFTISRDYAKNTVYLQMHSLKPEDTAVYYCNRGGAFNTRNEITRYGYWGQGTQVTVSS	low polyreactivity
QVQLVESGGGLVQAGGSLRLSCAASGSIFDDYAMGWYRQAPGKEREFVADISYNGGTTYSADSVKGRFTISRDNAKNTVYLQMNSLKPEDTAVYYCAADRTNYTYYLPYDYWGPGTQVTVSS	low polyreactivity
QVQLVESGGGLVQAGGSLRLSCAASGSIFDDYAMGWYRQAPGKERELVAAISWSGGSTYYADSVKGRFTISRDNAKNTVYLQMNSLKPEDTAVYYCAAYDYDYLYGEYYWGQGTQVTVSS	low polyreactivity
QVQLVESGGGLVQAGGSLRLSCAASGSIFDDYAMGWYRQAPGKERELVAAITSGGSTYYADSVKGRFTISRDNAKNTVYLQMNSLKPEDTAVYYCAAPENKSDEYDYWGQGTQVTVSS	low polyreactivity
QVQLVESGGGLVQAGGSLRLSCAASGSIFDDYAMGWYRQAPGKERELVATITSGDTTNYADSVKGRFTISRDNAKNTVYLQMNSLKPEDTAVYYCAADYLTSRSRTFDYWGQGTQVTVSS	low polyreactivity
QVQLVESGGGLVQAGGSLRLSCAASGSIFDENAMGWYIQAPGKERELVAAITGSGVRTYYADSVKGRFTISRDNAKTTVYLQMNSLKPEDTAVYYCAAETLGVYDYESYTYYWGQRTQVTVSS	high polyreactivity
